Where “and” joins values, the source holds several entries; their conditions need not be identical. Equal entries are not always repeated.
How the values were obtained:
α1AAR-kOR = target: T1, α1AAR-kOR (Homo sapiens, UniProt P35348, DEL205-275/INS204TLMILRLKSVRLLSGSREKDRNLRRITRLVL/M115W/N13Q/N22Q/N7Q/S113R); assay: [3H]prazosin radioligand binding, Sf9 membrane; conditions: for [3H]prazosin binding: listed as Tam
T1 construct: C-terminus truncated human α1AAR (residues 1–370, full length: 466); hemagglutinin signal peptide (N); FLAG (N); 8×His (C); made in house; host or cells: Sf9 insect cells (membranes)
T1 sequence (P35348 with tags, fused parts or gaps with the stated changes limits assumed): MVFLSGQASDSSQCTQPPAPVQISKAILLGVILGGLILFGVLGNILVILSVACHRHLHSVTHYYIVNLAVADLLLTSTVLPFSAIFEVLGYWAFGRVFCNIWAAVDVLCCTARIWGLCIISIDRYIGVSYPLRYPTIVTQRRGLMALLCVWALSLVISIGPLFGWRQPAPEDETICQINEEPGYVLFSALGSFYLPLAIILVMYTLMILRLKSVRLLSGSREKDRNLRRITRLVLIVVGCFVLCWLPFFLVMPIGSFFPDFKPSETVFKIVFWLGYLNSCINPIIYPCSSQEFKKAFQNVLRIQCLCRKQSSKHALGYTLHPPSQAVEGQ

[1] = target: T2, C-terminus truncated human α1AAR (residues 1-370; N7Q, N13Q, N22Q) (Homo sapiens, UniProt P35348, N7Q | N13Q | N22Q); assay: radioligand binding; [3H]prazosin competition binding with Nb29 as competitor, α1AAR in Sf9 membranes; 20 mM Tris-HCl pH 7.5, 100 mM NaCl; 1 h at room temperature; conditions: one partner purified
T2 construct: α1A-adrenergic receptor, human, residues 1-370 (full length: 466); also called α1A-adrenergic receptor; source: Sf9 insect cells (baculovirus); not shown: FLAG, N-terminal, kept

[2] = target: T2, C-terminus truncated human α1AAR …; assay: radioligand binding; [3H]prazosin competition binding with Nb29 as competitor, purified α1AAR bound to M1-Flag affinity resin; 20 mM HEPES pH 7.5, 100 mM NaCl, 0.01% MNG, 0.001% CHS, 2 mM CaCl2; 1 h at room temperature; conditions: both partners purified
α1AAR = target: T3, α1AAR (Homo sapiens, UniProt P35348, N13Q/N22Q/N7Q); assay: On-yeast titration of Nb29 for α1AAR, flow cytometry; type: binding
T3 construct: C-terminus truncated human α1AAR (residues 1–370, full length: 466); hemagglutinin signal peptide (N); 8×His (C); made in house; host or cells: Sf9 insect cells (baculovirus)
T3 sequence (P35348 1-370 N7Q/N13Q/N22Q): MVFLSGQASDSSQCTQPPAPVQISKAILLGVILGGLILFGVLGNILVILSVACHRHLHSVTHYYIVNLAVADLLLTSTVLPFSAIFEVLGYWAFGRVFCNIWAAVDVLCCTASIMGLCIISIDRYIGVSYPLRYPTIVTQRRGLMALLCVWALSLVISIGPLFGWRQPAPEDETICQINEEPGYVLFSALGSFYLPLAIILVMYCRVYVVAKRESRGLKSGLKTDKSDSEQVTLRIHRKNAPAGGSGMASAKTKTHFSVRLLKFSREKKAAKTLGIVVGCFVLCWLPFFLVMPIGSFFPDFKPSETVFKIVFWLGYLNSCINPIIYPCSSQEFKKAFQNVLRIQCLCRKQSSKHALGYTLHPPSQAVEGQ
Experimental: Yeast cells were analyzed by Accuri C6 and the ratio of double-positive yeast cells among anti-HA positive cells was calculated.

[3] = 1 h, read-out: [3H]prazosin binding

Molecule: Cc1cc(C(C)(C)C)c(O)c(C)c1CC1=NCCN1 [Oxymetazoline, oxymetazoline]
- remaining activity at 0.001 µM (α1AAR-kOR; [3]): 89.3%
- remaining activity at 0.01 µM (α1AAR-kOR; [3]): 83.5%
- remaining activity at 1 µM (α1AAR-kOR; [3]): 13.3%

Molecule: CCOc1ccccc1OCCN[C@H](C)Cc1ccc(OC)c(S(N)(=O)=O)c1 [Tamsulosin, tamsulosin]
- [3H]prazosin binding (α1AAR-kOR; Tam Log[M] -4, + 5 μM Nb6): 0.3% and 1.4% and 0.5%
- [3H]prazosin binding (α1AAR-kOR; Tam Log[M] -4): 1.611% and 3.516% and 2.93%
- [3H]prazosin binding (α1AAR-kOR; Tam Log[M] -5, + 5 μM Nb6): 2.5% and 2.1% and 1.4%
- [3H]prazosin binding (α1AAR-kOR; Tam Log[M] -5): 3.223% and 3.809% and 3.369%
- [3H]prazosin binding (α1AAR-kOR; Tam Log[M] -6, + 5 μM Nb6): 3.3% and 4.3% and 2.7%
- [3H]prazosin binding (α1AAR-kOR; Tam Log[M] -6): 4.541% and 3.809% and 4.395%
- [3H]prazosin binding (α1AAR-kOR; Tam Log[M] -7, + 5 μM Nb6): 48.154% and 49.4541% and 47.454%
- [3H]prazosin binding (α1AAR-kOR; Tam Log[M] -7): 39.4775% and 27.2705% and 36.2061%
- [3H]prazosin binding (α1AAR-kOR; Tam Log[M] -8, + 5 μM Nb6): 86.9072% and 94.5245% and 104.442%
- [3H]prazosin binding (α1AAR-kOR; Tam Log[M] -8): 82.3975% and 81.5186% and 80.0537%
- [3H]prazosin binding (α1AAR-kOR; Tam Log[M] -9, + 5 μM Nb6): 108.742% and 93.5245% and 98.1248%
- [3H]prazosin binding (α1AAR-kOR; Tam Log[M] -9): 91.626% and 91.1865%
- [3H]prazosin binding (α1AAR-kOR; Tam Log[M] -10, + 5 μM Nb6): 97.6581% and 106.126% and 95.8247%
- [3H]prazosin binding (α1AAR-kOR; Tam Log[M] -10): 84.8877% and 109.009% and 95.459%
- [3H]prazosin binding (α1AAR-kOR; Tam Log[M] -11, + 5 μM Nb6): 98.7416% and 100.042% and 78.5899%
- [3H]prazosin binding (α1AAR-kOR; Tam Log[M] -11): 106.152% and 96.4844% and 97.3633%

B1: Nb29 (purified nanobody) (VHH)
VHH: QVQLQESGGGLVQAGGSLRLSCAASGNISAHWKMGWYRQAPGKEREFVAGIGYANTNYADSVKGRFTISRDNAKNTVYLQMNSLKPEDTAVYYCAAYSYYRDHSYWGQGTQVTVSS
notes: source: E. coli BL21(DE3), periplasmic (pET26b), purified (Ni-NTA, size-exclusion chromatography)
- Ki [1]: 41 µM
- Ki [2]: 6.4 µM

B2: Nb29: synthetic nanobody (single domain antibody) that binds the extracellular vestibule of α1AAR, preferentially oxymetazoline-bound (antibody, V domains shown)
VH: B1 VHH
- Nb29-expressing yeast cells bound to α1AAR (α1AAR; 500 μM Noradrenaline, α1AAR 4 nM): 4.281% and 5.07% and 1.08%
- Nb29-expressing yeast cells bound to α1AAR (α1AAR; 500 μM Noradrenaline, α1AAR 16 nM): 4.4164% and 6.158% and 1.447%
- Nb29-expressing yeast cells bound to α1AAR (α1AAR; 500 μM Noradrenaline, α1AAR 64 nM): 6.534% and 6.061% and 1.603%
- Nb29-expressing yeast cells bound to α1AAR (α1AAR; 500 μM Oxymetazoline, α1AAR 64 nM): 56.0554% and 29.8113% and 58.3201%
- Nb29-expressing yeast cells bound to α1AAR (α1AAR; 500 μM Oxymetazoline, α1AAR 256 nM): 56.0831% and 53.0792% and 88.1579%
- Nb29-expressing yeast cells bound to α1AAR (α1AAR; 500 μM Phentolamine, α1AAR 4 nM): 4.281% and 2.134% and 0.9772%
- Nb29-expressing yeast cells bound to α1AAR (α1AAR; 500 μM Phentolamine, α1AAR 16 nM): 4.4164% and 5.525% and 0.626%
- Nb29-expressing yeast cells bound to α1AAR (α1AAR; 500 μM Phentolamine, α1AAR 64 nM): 6.534% and 6.745% and 1.138%
- Nb29-expressing yeast cells bound to α1AAR (α1AAR; 500 μM Tam, α1AAR 4 nM): 1.7094% and 4.412% and 4.11%
- Nb29-expressing yeast cells bound to α1AAR (α1AAR; 500 μM Tam, α1AAR 16 nM): 2.954% and 4.451% and 4.373%
- Nb29-expressing yeast cells bound to α1AAR (α1AAR; 500 μM Tam, α1AAR 64 nM): 5.7377% and 5.491% and 6.25%
- Nb29-expressing yeast cells bound to α1AAR (α1AAR; 500 μM Tam, α1AAR 256 nM): 3.361% and 11.8841% and 12.7329%
- Bmax (α1AAR; Apo α1AAR): 35.8 ± 25.7%
- Kd (α1AAR; Apo α1AAR): 0.209 ± 0.288 µM
- Nb29-expressing yeast cells bound to α1AAR (α1AAR; Apo, α1AAR 4 nM): 4.848% and 6.304% and 2.077%
- Nb29-expressing yeast cells bound to α1AAR (α1AAR; Apo, α1AAR 16 nM): 4.142% and 4.886% and 1.136%
- Bmax (α1AAR; α1AAR + 500 μM noradrenaline): 10.9 ± 3.4%
- Bmax (α1AAR; α1AAR + 500 μM oxymetazoline): 75.5 ± 13.8%
- Bmax (α1AAR; α1AAR + 500 μM phentolamine): 24.8 ± 4.0%
- Bmax (α1AAR; α1AAR + 500 μM tamsulosin): 8.90 ± 1.8%

B3: Nb6: nanobody that engages the ICL3 of the inactive-state κ-opioid receptor (antibody, V domains shown)
VH: QVQLQESGGGLVQAGESLRLSCAASGTIFRLYDMGWYRRVSGNQRELVASITSGGSTKYGDSVKGRFTISRDNAKNTVYLQMSSLKPEDTAVYYCNAEYRTGIWEELLDGWGQGTQVTVSS
- effect on [3H]prazosin binding (α1AAR-kOR): enhancement
- Normalized [3H]prazosin-binding (α1AAR-kOR; with 5 μM Nb6): 182.818% and 184.467% and 175.395%
